Assay in all cases: EPR
In data set [1] the target is Sso1pHT spin-labeled cysteine mutant at position 284 (yeast) (UniProt P32867).
For data set [2] the target is unchanged. The source holds these as a separate data set.
The target in data set [3] is Sso1pHT spin-labeled cysteine mutant at position 269 (yeast) (UniProt P32867).
Data set [4] shares this target. This is another data set of the same source.
Data set [5] addresses Sso1pHT spin-labeled cysteine mutant at position 272 (yeast) (UniProt P32867).
Data set [6] shares this target. This is another data set of the same source.
The data set “EPR” concerns the molecule itself.

“And” between values parts separate entries of the source, which are not always exact repeats. Equal entries are not always repeated. Where two headings read alike, the source gives them in different places.

Molecule “Sso1pHT spin-labeled cysteine mutant at position 284 (from UniProt P32867 185-290) (domain or fragment)” had a stoichiometry N in data set [1] above 3. In data set [2], the ln K (equilibrium constant of nM to Mn, concentration as protein:lipid ratio) stood at 18.4 and the stoichiometry N was found to be 4.
The molecule “Sso1pHT spin-labeled cysteine mutant at position 269 (from UniProt P32867 185-290) (domain or fragment)” yielded a stoichiometry N in data set [3] above 3. Moreover, in data set [4], the ln K (equilibrium constant of nM to Mn, concentration as protein:lipid ratio) turned out to be 18.4 and the stoichiometry N turned out to be 4.
Take “Sso1pHT spin-labeled cysteine mutant at position 272 (from UniProt P32867 185-290) (domain or fragment)”: in data set [5], the stoichiometry N was above 3. Also, in data set [6], the ln K (equilibrium constant of nM to Mn, concentration as protein:lipid ratio) was 18.4 and the stoichiometry N came to 4.

B1: Sso1pHT I273C, spin-labeled (domain or fragment, yeast, UniProt P32867 185-290, looked up)
chain: EAKTALAEVQARHQELLKLEKSMAELTQLFNDMEELVIEQQENVDVIDKNVEDAQLDVEQGVGHTDKAVKSARKARKNKIRAWLIVFACIVVVVVVVVVPAVVKTR
modifications: MTSSL nitroxide spin label on the cysteine at 273
B1: in “EPR”, the “ln K (equilibrium constant of nM to Mn, concentration as protein:lipid ratio)” value amounted to 18.4; the “stoichiometry N” value was 4 and ≥ 3.

As usually defined, the stoichiometry N is the number of molecules, sites or subunits per partner or assembly.

The record behind these values is article PMC2575085 (Nature structural & molecular biology, 2008).
